Reference: US20230406902A1 (BIONTECH, published 2023)
Bridges are numbered along the chain shown (N, C = ends). Where no end group is shown, it is not given here.

Target: T1, IMAB362
T1 construct: It is the target of the phage display selection; also called IMAB362 antibody
Test: peptide microarray, 1 µg/ml IMAB362, fluorescence signal; this construct is the reference
Method: Washing steps were performed prior every incubation step with 0.1% Tween-20 in 1×TBS. After the final incubation step the microarrays were washed (0.05% Tween-20 in 0.1×SSC) and dried in a stream of nitrogen. Each microarray was scanned using a GenePix Autoloader 4200AL (Molecular Devices, Pixel size: 10 μm). Signal intensities were evaluated using GenePix Pro 7.0 analysis software (Molecular Devices). For each peptide, the mean of the three triplicates was calculated.

T1 sequence (VH, as listed by the source limits assumed, chain 1 of 2): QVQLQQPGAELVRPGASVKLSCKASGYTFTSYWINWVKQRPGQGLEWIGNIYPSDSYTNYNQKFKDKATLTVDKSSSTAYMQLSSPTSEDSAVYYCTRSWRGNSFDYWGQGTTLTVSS
T1 sequence (VL, as listed by the source limits assumed, chain 2 of 2): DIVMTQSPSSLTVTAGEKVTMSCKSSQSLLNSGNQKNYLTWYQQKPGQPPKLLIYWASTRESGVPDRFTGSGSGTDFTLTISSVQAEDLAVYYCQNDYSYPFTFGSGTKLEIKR

| % Affinity compared to hit peptide [%] | Binder |
| --- | --- |
| 100 | ACHYSYPGVCGGGSK (disulfide 2-10 (inferred); also: C-terminal Lys carries an unspecified functional group X for microarray attachment, Microarray construct; also called parental peptide (cyclic, immobilized through C-terminus)) [Cyclopeptide-GGS-K(X) of ACHYSYPGVCG (Seq. 2)] |
| 100 | ACHLGYPGRCGGGSK (disulfide 2-10 (inferred); also: C-terminal Lys carries an unspecified functional group X for microarray attachment, Microarray construct; also called parental peptide (cyclic, immobilized through C-terminus)) [Cyclopeptide-GGS-K(X) of ACHLGYPGRCG (Seq. 3)] |
| 100 | ACHLNYPGYCGGGSK (disulfide 2-10 (inferred); also: C-terminal Lys carries an unspecified functional group X for microarray attachment, Microarray construct; also called parental peptide (cyclic, immobilized through C-terminus)) [Cyclopeptide-GGS-K(X) of ACHLNYPGYCG (Seq. 1)] |
